Reference: patent US20080280834A1, “Compounds and methods for inhibiting apoptosis” (University of Pittsburgh of the Commonwealth System of …, priority 2005, published 2008)
Read-outs that look alike come from different tables or passages of the source. Each block holds one compound with its values, some of them ahead of it. Residues, ends and D or L forms follow the SMILES beside them. No end group written: not given here.

Legend:
FasR = biological target: T1, FasR (Homo sapiens, UniProt P25445); assay: ELISA binding of peptides to FasR (association constant); conditions: for Ka(M − 1), Measured Association Constants (Ka) for YLGA and YLGX Substituted Peptides / Ka(M^−1), Measured Association Constants (Ka) for YLGA to XLGA Substituted Peptides / Ka(M^−1), Measured Association Constants (Ka) YLGA and YXGA Substituted Proteins / Ka(M^−1), Measured Association Constants (Ka) for YLGA and YLXA Substituted Peptides: ELISA; for Ka(M − 1), Measured Association Constants (Ka) for YLGA and YLGX Substituted Peptides / Ka(M^−1), Measured Association Constants (Ka) YLGA and YXGA Substituted Proteins / Ka(M^−1), Measured Association Constants (Ka) for YLGA and YLXA Substituted Peptides: 1 nM to 1 μM; for Ka(M − 1), Measured Association Constants (Ka) for YLGA and YLGX Substituted Peptides: fourth residue varied; for Ka(M^−1), Measured Association Constants (Ka) for YLGA to XLGA Substituted Peptides: concentration range 1 nM to 1 μM, first residue varied; for Ka(M^−1), Measured Association Constants (Ka) YLGA and YXGA Substituted Proteins: second residue varied; for Ka (M^−1), Elongated Peptide Sequences: Table 7, peptides based on the α-Met sequence, Fas receptor; for Ka(M^−1), Measured Association Constants (Ka) for YLGA and YLXA Substituted Peptides: third residue varied
T1 construct: Fc (IgG Fc fusion partner); purchased R&D Systems 326-FS-050
T1 sequence (P25445 with tags, fused parts or gaps limits assumed): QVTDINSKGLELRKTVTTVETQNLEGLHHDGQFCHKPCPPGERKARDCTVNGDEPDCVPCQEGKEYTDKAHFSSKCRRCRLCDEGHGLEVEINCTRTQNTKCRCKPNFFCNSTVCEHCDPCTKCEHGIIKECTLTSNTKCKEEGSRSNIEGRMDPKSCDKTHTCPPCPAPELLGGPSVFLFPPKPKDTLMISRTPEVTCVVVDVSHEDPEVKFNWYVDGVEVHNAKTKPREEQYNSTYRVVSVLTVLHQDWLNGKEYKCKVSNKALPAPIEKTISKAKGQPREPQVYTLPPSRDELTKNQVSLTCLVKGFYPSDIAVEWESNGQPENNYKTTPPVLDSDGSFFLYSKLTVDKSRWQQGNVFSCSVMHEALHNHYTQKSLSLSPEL
From the text: (§1) Cell Lines, Chemicals, Antibodies & Proteins. Recombinant Human Fas/TNFRSF6/Fc Chimera (cat no. 326-FS-050), Human Fas Ligand/TNFSF6 (cat. No. 126-FL), Anti-human Fas TNFRSF6 Polyclonal Antibody (cat. no. AF326) and Anti-6×Histidine Cross-Linking Ab (cat no. MAB050) were purchased from R&D Systems. Anti-human, IgM-HRP (cat. no. AP320P) was purchased from Chemicon International. Phosphate buffered saline (cat. no. P3563), sodium azide (cat. no. 71289) and 3,3′,5,5′-Tetramethylbenzidine (TMB) Liquid Substrate System for ELISA (cat. no. T0440) were purchased from Sigma-Aldrich. Cliniplate 96-well microplates w/enhanced binding (cat. no. 28298-604) were purchased from VWR. Costar, 96-well, cell culture assay plates (cat. no. 3632) were ordered from Corning Incorporated. Jurkat cells (ATCC no. CRL-1990) and L929 (ATCC no. CRL-2148) were purchased from ATCC and were propagated in RPMI 1640 medium with 2 mM L-glutamine, adjusted to contain 1.5 g/L sodium bicarbonate, 4.5 g/L glucose, 10 mM HEPES, and 1 mM sodium pyruvate, 90%; 10% fetal bovine serum. CellTiter Blue Cell Viability Assay (cat. no. TB317) was purchased from Promega.
ELISA. Peptides were dissolved in a coating buffer solution (0.05M Sodium Carbonate, 0.02% Sodium Azide, pH=9.6) at the appropriate concentrations to a final concentration of 10 μM. Dilutions were made accordingly to reach desired experimental concentrations. 100 μl aliquots of the peptide solution was added to each well and incubated for 2 hours. All incubations were carried out with shaking at T=37° C. Wells were washed by pipetting solution out of each well, adding 200 μL of washing solution (PBS-Tween; 0.5%), shaking for 15 minutes and emptying each well. Three wash cycles were carried out prior to addition of 200 μL of blocking solution (1% BSA in PBS buffer) to each well followed by incubation for 2 hours. Wells were then washed (as per above procedure) three times. Protein solutions of the appropriate concentrations (Vsolution 50 μL) were then added and incubated for 2 hours. After washing three times (as per above protocol) Fas specific antibody solution (˜1:20,000) was added to each well in 100 μL aliquots and incubated for 1 hour. After washing three times (as per above protocol) IgM-HRP solution (˜1:20,000) was added to each well in 100 μL aliquots and incubated (with shaking) for 1 hour at T=37° C. Wells were washed three times prior to the addition of ready-to-use TMD, followed by incubation for 30 minutes. 2M H2SO4 (3 drops) was added to stop colorimetric reaction and the absorption was taken at 450 nm on a Perkin-Elmer, Victor3 Model automated plate reader. Data was analyzed using standard regression fits in Excel.
Effect of Amino Acid Substitution on Binding Affinities. The binding affinity of each tetrapeptide was determined by standard ELISA with a concentration range of 1 nM to 1 μM. In the first series of peptides, alterations were made only to the tyrosine residue while retaining the final three amino acids homologous in the parent sequence (LGA).

Jurkat cells = format: cell-based, human; conditions: for EC50 (nM): Table 5, Jurkat cells, peptide then recombinant FasL, cell viability
From the text: as §1
Apoptosis Assay. […] Control reactions were diluted with sterile PBS buffer to final volume of 200 μL per well. Peptide solutions (in PBS buffer, pH=7.3) were added in appropriate volumes to reach the desired concentrations in each well given a total volume of 200 μL per well. Apoptosis was induced by the addition of cross-linked human FasL at a concentration of 0.5 ng/ml. Plates were then incubated under sterile conditions, with shaking in a Kendro, model Hera Cell 150 incubator at T=37° C., % CO2=5 for 3 hours. A Cell Titer Blue Cell Viability Assay kit was used (as per accompanying protocol) to determine % apoptosis in cells. Fluorescence readings (560/590 nm) were taken after 4 hours under above cited incubation conditions on a Perkin-Elmer, Victor3 Model automated plate reader. Data was analyzed using standard regression fits in Excel.
Correlating the In-vitro Binding Assays with Cellular Activity. FasL activated apoptosis is known to occur by binding of the ligand to the receptor thereby initiating a series of signaling events leading to caspase production and subsequent cell death. If the YLGA (SEQ ID NO:1) motif isolated in both the α-Met and FasL proteins, is indeed the primary sequence responsible for binding to FasR then at a given concentration, peptides of sufficient Ka values should preferably bind to the receptor. This in turn would block the binding site from FasL and inhibiting cell death in the presence of both peptide and FasL. In order to examine this possibility, Jurkat cells (known to upregulate the Fas receptor) were treated with varying concentrations of peptide and then exposed to recombinant FasL.

TNFR1 = biological target: T2, TNFR1 (Mus musculus, UniProt P25118); assay: Inhibition of the TNFR / TNFR1 pathway (EC50); format: cell-based; conditions: Table 8
T2 sequence (P25118 30-454): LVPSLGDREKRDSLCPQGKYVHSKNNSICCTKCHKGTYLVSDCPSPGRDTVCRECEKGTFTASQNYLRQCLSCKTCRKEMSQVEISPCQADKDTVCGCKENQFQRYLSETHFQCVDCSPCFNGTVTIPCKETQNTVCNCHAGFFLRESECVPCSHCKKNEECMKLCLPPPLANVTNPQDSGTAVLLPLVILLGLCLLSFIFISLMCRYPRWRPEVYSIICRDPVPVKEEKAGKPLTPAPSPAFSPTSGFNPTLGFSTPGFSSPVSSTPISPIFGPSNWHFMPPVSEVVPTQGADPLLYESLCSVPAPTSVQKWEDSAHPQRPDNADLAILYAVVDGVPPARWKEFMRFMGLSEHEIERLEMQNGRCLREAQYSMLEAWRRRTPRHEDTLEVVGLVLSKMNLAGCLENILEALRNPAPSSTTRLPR
From the text: This correlation implies a peptide-protein interaction mechanism, wherein whereby tightly bound peptides are capable of blocking FasL association with the receptor and as such, inhibit FasL induced apoptosis.

Compound: YLGL [tetrapeptide]
- Ka(M − 1), Measured Association Constants (Ka) for YLGA and YLGX Substituted Peptides (FasR): 3 × 10^7 M − 1

Compound: C[C@H](NC(=O)CNC(=O)[C@H](C)NC(=O)[C@@H](N)Cc1ccc(O)cc1)C(N)=O [YAGA] (H-YAGA-NH2)
- EC50 (Jurkat cells): 6 nM

Compound: LGA [LGA (trimer), Y-free trimer peptide]
- EC50 (nM) (Jurkat cells): no inhibition

Compound: YVGA
- Ka(M^−1), Measured Association Constants (Ka) YLGA and YXGA Substituted Proteins (FasR): 2e+08 M⁻¹

Compound: DLGA [tetrapeptide]
- Ka(M^−1), Measured Association Constants (Ka) for YLGA to XLGA Substituted Peptides (FasR): 5e+07 M⁻¹

Compound: GLGA [tetrapeptide]
- Ka(M^−1), Measured Association Constants (Ka) for YLGA to XLGA Substituted Peptides (FasR): no binding

Compound: TLGA [tetrapeptide]
- Ka(M^−1), Measured Association Constants (Ka) for YLGA to XLGA Substituted Peptides (FasR): 2e+08 M⁻¹

Compound: ALGA [tetrapeptide]
- Ka(M^−1), Measured Association Constants (Ka) for YLGA to XLGA Substituted Peptides (FasR): no binding

Compound: HHIYLGATNY [HHI YLG ATN Y]
- Ka (M^−1), Elongated Peptide Sequences (FasR): 3e+08 M⁻¹

Compound: CC(C)C[C@H](NC(=O)[C@@H](N)CC(C)C)C(=O)NCC(=O)N[C@@H](C)C(N)=O [LLGA] (H-LLGA-NH2)
- EC50 (Jurkat cells): 93 nM

Compound: RSSYLGAVF-NH2 [RSSYLGAVF]
- TNFR1 EC50 (TNFR1): no inhibition

Compound: HIYLGATNYIY [HI YLG ATN YIY]
- Ka (M^−1), Elongated Peptide Sequences (FasR): 3e+08 M⁻¹

Compound: HHIYLGATNYI [HHI YLG ATN YI]
- Ka (M^−1), Elongated Peptide Sequences (FasR): 3e+08 M⁻¹

Compound: YldAA
- Ka(M^−1), Measured Association Constants (Ka) for YLGA and YLXA Substituted Peptides (FasR): no binding observed

Compound: HHIYLGATN [HHI YLG ATN]
- Ka (M^−1), Elongated Peptide Sequences (FasR): 3e+08 M⁻¹

Compound: YLGT [tetrapeptide]
- Ka(M − 1), Measured Association Constants (Ka) for YLGA and YLGX Substituted Peptides (FasR): no binding observed

Compound: HHIYLGAT [HHI YLG AT]
- Ka (M^−1), Elongated Peptide Sequences (FasR): 3e+08 M⁻¹

Compound: HHIYLGATNYIY [HHI YLG ATN YIY]
- Ka (M^−1), Elongated Peptide Sequences (FasR): 3e+08 M⁻¹

Compound: YTGA [tetrapeptide]
- Ka(M^−1), Measured Association Constants (Ka) YLGA and YXGA Substituted Proteins (FasR): no binding

Compound: RSSYLGA [RSSYLGA]
- EC50 (Jurkat cells; Table 8, read-out: Fas EC50): 3.28 nM
- TNFR1 EC50 (TNFR1): no inhibition

More lines, now with the values ahead:

- Ka(M^−1), Measured Association Constants (Ka) for YLGA to XLGA Substituted Peptides (FasR): 5e+07 M⁻¹
Compound: ELGA [tetrapeptide]

- Ka(M^−1), Measured Association Constants (Ka) YLGA and YXGA Substituted Proteins (FasR): no binding
Compound: YFGA [tetrapeptide]

- Ka (M^−1), Elongated Peptide Sequences (FasR): 3e+08 M⁻¹
Compound: IYLGATNYIY [I YLG ATN YIY]

- Ka(M^−1), Measured Association Constants (Ka) for YLGA and YLXA Substituted Peptides (FasR): 1e+06 M⁻¹
Compound: YLLA [tetrapeptide]

- EC50 (Jurkat cells): 6 nM
Compound: CC(C)C[C@H](NC(=O)[C@@H](N)CO)C(=O)NCC(=O)N[C@@H](C)C(N)=O [SLGA] (H-SLGA-NH2)

- Ka(M^−1), Measured Association Constants (Ka) for YLGA to XLGA Substituted Peptides (FasR): 9e+06 M⁻¹
Compound: ILGA [tetrapeptide]

- Ka (M^−1), Elongated Peptide Sequences (FasR): 3e+08 M⁻¹
Compound: YLGATNYIY [YLG ATN YIY]

- EC50 (nM) (Jurkat cells): no inhibition
- Ka(M^−1), Measured Association Constants (Ka) for YLGA and YLXA Substituted Peptides (FasR): 1e+06 M⁻¹
Compound: YLAA [tetrapeptide]

- Ka(M^−1), Measured Association Constants (Ka) YLGA and YXGA Substituted Proteins (FasR): 2e+08 M⁻¹
Compound: YIGA

- Ka(M^−1), Measured Association Constants (Ka) for YLGA to XLGA Substituted Peptides (FasR): 8e+06 M⁻¹
Compound: KLGA [tetrapeptide]

- Ka(M^−1), Measured Association Constants (Ka) for YLGA and YLXA Substituted Peptides (FasR): no binding observed
Compound: YLIA [tetrapeptide]

- Ka(M − 1), Measured Association Constants (Ka) for YLGA and YLGX Substituted Peptides (FasR): 3 × 10^7 M − 1
Compound: YLGI [tetrapeptide]

- Ka(M^−1), Measured Association Constants (Ka) YLGA and YXGA Substituted Proteins (FasR): 1e+07 M⁻¹
- decrease in measured Ka (FasR; relative to parent YLGA): 20 fold
Compound: YGGA [tetrapeptide]

- Ka (M^−1), Elongated Peptide Sequences (FasR): 3e+08 M⁻¹
Compound: HHIYLGA [HHI YLG A]
